We go through 3 molecules from article PMC4320653.

One assay concerns the target TRBP (Homo sapiens) (UniProt Q15633). To be noted: cited from earlier work.
For assay [1], the target named is human Dicer, wild type, full-length (human) (UniProt Q9UPY3). The experiment in a line: ITC. (In ITC the heat of successive injections is recorded.)

The Kd is the concentration at which binding is half-saturated. Usually stoichiometry N stands for a count of units in the complex or per binding partner.

In the case of TRBP (from UniProt Q15633), the Kd in the assay with TRBP (Homo sapiens) is 54000 nM.

B1: human TRBP (isoform TRBP2, 366 residues), full-length, residues 1-366 (natural protein)
chain: MSEEEQGSGTTTGCGLPSIEQMLAANPGKTPISLLQEYGTRIGKTPVYDLLKAEGQAHQPNFTFRVTVGDTSCTGQGPSKKAAKHKAAEVALKHLKGGSMLEPALEDSSSFSPLDSSLPEDIPVFTAAAAATPVPSVVLTRSPPMELQPPVSPQQSECNPVGALQELVVQKGWRLPEYTVTQESGPAHRKEFTMTCRVERFIEIGSGTSKKLAKRNAAAKMLLRVHTVPLDARDGNEVEPDDDHFSIGVGSRLDGLRNRGPGCTWDSLRNSVGEKILSLRSCSLGSLGALGPACCRVLSELSEEQAFHVSYLDIEELSLSGLCQCLVELSTQPATVCHGSATTREAARGEAARRALQYLKIMAGSK
In assay [1], B1 gave an equilibrium dissociation constant (Kd) of 2.8 nM, a dH of -15.9 kcal/mol and a stoichiometry N of 0.84.

B2: TRBP3: third dsRBD of human TRBP with its N-terminal extension, residues 258-366 (domain or fragment)
chain: NRGPGCTWDSLRNSVGEKILSLRSCSLGSLGALGPACCRVLSELSEEQAFHVSYLDIEELSLSGLCQCLVELSTQPATVCHGSATTREAARGEAARRALQYLKIMAGSK
In assay [1], B2 gave a Kd of 4.3 nM, a dH of -23.2 kcal/mol and a stoichiometry N of 1.35.
